Assay results published in doi:10.1101/2025.08.04.668557.

What was measured:
[1] = system: Nsp1 N127 (6His-Nsp1(N127)) (SARS-CoV-2); assay: MST; details: assay buffer not stated ([…]
[2] = system: Nsp1 full-length (6His-Nsp1) (SARS-CoV-2); assay: MST; details: assay buffer not stated ([…]

For CoV2 5' UTR 1-50 RNA, the Kd [1] was 77.8 µM and the Kd [2] was 6.3 µM.
Substance TIAR 5' UTR 1-50 RNA has a Kd [1] of 112 µM and a Kd [2] of 4.23 µM.
